4 molecules from patent publication CN113461822A can be followed below.

Substitutions are numbered along the chain they refer to.

The target of test [1] is Scl-70抗原 (人DNA拓扑异构酶I的C末端片段的70kD分子量蛋白) (human) (UniProt P11387). The test can be described thus: chemiluminescence immunoassay on Scl-70-coated magnetic microspheres, ABEI-anti-human IgG; CHO supernatant diluted 200-fold.
For test [2] the target is unchanged. Nature of the test: chemiluminescence immunoassay on Scl-70-coated magnetic microspheres, ABEI-anti-human IgG; CHO supernatant undiluted.
Test [3] shares this target. Nature of the test: chemiluminescence immunoassay on Scl-70-coated magnetic microspheres, ABEI-anti-human IgG; CHO supernatant diluted 100-fold.
Test [4] shares this target. Nature of the test: chemiluminescence immunoassay on Scl-70-coated magnetic microspheres, ABEI-anti-human IgG; CHO supernatant diluted 30-fold.
For test [5] the target is unchanged. Nature of the test: chemiluminescence immunoassay on Scl-70-coated magnetic microspheres, ABEI-anti-human IgG; CHO supernatant diluted 10-fold.
Test [6] has the same target. Nature of the test: chemiluminescence immunoassay on Scl-70-coated magnetic microspheres, ABEI-anti-human IgG; CHO supernatant diluted 50-fold.
Test [7] has the same target. The test can be described thus: chemiluminescence immunoassay on Scl-70-coated magnetic microspheres, ABEI-anti-human IgG; CHO supernatant diluted 150-fold.

B1: 抗体1 (实施例11; 2D6抗体) (antibody, human IgG1, kappa, V domains shown)
VH: EIQLVQSGSEVVRTGTSVKLSCKASGYRFTSYWMHWVKQRPGQGLEWIGNINPGDGRTNYDENFKNKATLTVDPSSNTAYMQLNSLTSEDSAVYYCTRDGNYGIFDYWGRGTSVTVSS
VL: NIVMTQSPSSLVVSAGEKVTLSCKSSQSLLYSSNQKNYLAWFQQKPGQSPKLLIYWASTRESGVPDRFTGSGSRTDFTLTISSVQAEDMAVYYCHQYIYLWSFGGGSKLEIER
Molecule B1 yielded a 稀释200倍RLU in test [1] of 55400 RLU. In test [2], this molecule showed a 原液RLU of 1.64e+06 RLU. In test [3], the 稀释100倍RLU stood at 140000 RLU. Also, the 稀释30倍RLU in test [4] stood at 355000 RLU. The 稀释10倍RLU in test [5] was found to be 1.01e+06 RLU. This molecule also came in with a 稀释50倍RLU in test [6] of 220000 RLU. This molecule came in with a 稀释150倍RLU in test [7] of 73100 RLU.

B2: 抗体5 (实施例15) (antibody, human IgG1, kappa, V domains shown)
VH: B1 VH
VL: B1 VL with N1D, V3E, M4L, E61G, S107T, E112K
Consider B2, for which the 稀释200倍RLU in test [1] amounted to 59200 RLU. For the same molecule, in test [2], the 原液RLU worked out at 2e+06 RLU. Also, in test [3], the 稀释100倍RLU was found to be 129000 RLU. Besides, the 稀释30倍RLU in test [4] is 421000 RLU. This molecule came in with a 稀释10倍RLU in test [5] of 1.31e+06 RLU. The molecule further displayed a 稀释50倍RLU in test [6] of 239000 RLU. For the same molecule, the 稀释150倍RLU in test [7] was determined as 89300 RLU.

B3: 抗体6 (实施例16) (antibody, human IgG1, kappa, V domains shown)
VH: EVKLVESGGGLVQPGGSRKLSCAASGFTFSSYWMHWVRQAPEKGLEWVANINPGDGRTNYDENFKNRFTISRDNPENTLFLQMTSLTSEDTAIYYCARRAAYGNYDWYFDVWGAGTTVTVSS
VL: B1 VL
Consider B3, for which the 稀释200倍RLU in test [1] stood at 43500 RLU. Also, in test [2], the 原液RLU turned out to be 1.08e+06 RLU. Besides, the 稀释100倍RLU in test [3] was 86400 RLU. Further, the 稀释30倍RLU in test [4] came out at 329000 RLU. Further, the 稀释10倍RLU in test [5] came to 801000 RLU. The 稀释50倍RLU in test [6] was 177000 RLU. In test [7], this molecule showed a 稀释150倍RLU of 57600 RLU.

B4: 抗体4 (实施例14) (antibody, human IgG1, kappa, V domains shown)
VH: EVKLVESGGGLVQPGGSRKLSCAASGFTFSSYWMHWVRQAPEKGLEWVAYISSGGITIYYADTVKGRFTISRDNPENTLFLQMTSLTSEDTAIYYCARRAAYGNYDWYFDVWGAGTTVTVSS
VL: B1 VL
In test [1], B4 gave a 稀释200倍RLU of 85700 RLU. The 原液RLU in test [2] was determined as 2.46e+06 RLU. The molecule also showed a 稀释100倍RLU in test [3] of 171000 RLU. Further, the 稀释30倍RLU in test [4] was 609000 RLU. The same molecule had a 稀释10倍RLU in test [5] of 1.74e+06 RLU. The molecule further yielded a 稀释50倍RLU in test [6] of 379000 RLU. The molecule also came in with a 稀释150倍RLU in test [7] of 124000 RLU.
